Test results: patent publication US20250188139A1 (published 2025)

T1: Human VEGFR-3 extracellular domain (amino acids 25-329), AviTag, hexahistidine tag, biotinylated (human, UniProt P35916 25-329, biotinylated with BirA ligase (AviTag))
T1 chain (part 1 of 2): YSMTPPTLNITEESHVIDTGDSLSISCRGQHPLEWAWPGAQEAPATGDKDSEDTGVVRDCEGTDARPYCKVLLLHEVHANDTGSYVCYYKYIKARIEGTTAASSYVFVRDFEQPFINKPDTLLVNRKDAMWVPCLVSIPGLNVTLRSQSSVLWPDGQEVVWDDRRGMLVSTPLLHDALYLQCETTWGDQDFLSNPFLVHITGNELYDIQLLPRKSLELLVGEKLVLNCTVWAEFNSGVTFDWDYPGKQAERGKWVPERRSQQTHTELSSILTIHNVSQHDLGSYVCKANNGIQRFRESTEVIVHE
T1 chain (part 2 of 2): HHHHHH


Target: VEGFR2
Test: SPR

Binder | Kd
WT (ligand) NTEILKSIDNEWRKTQCMPREVCIDVGKEFGAATNTFFKPPCVSVYRCGGCCNSEGLQCMNTSTGYLSKTLFEITVPLSQGPKPVTISFANHTSCRCMSKL | 0.227 nM

Target: VEGFR3
Test: SPR

Binder | Kd
WT (ligand) NTEILKSIDNEWRKTQCMPREVCIDVGKEFGAATNTFFKPPCVSVYRCGGCCNSEGLQCMNTSTGYLSKTLFEITVPLSQGPKPVTISFANHTSCRCMSKL | 0.0107 nM

Target: T1, Human VEGFR-3 extracellular domain …
Test: yeast display flow cytometry binding

Binder | EC50
Clone 15 (protein) NTEILKSIDNEWRKTQCMPREVAIDVGKEFGVATNTFFKPPCVSVYRCGGCCISEGLQCMNTSTSYLSKTLFEITVPISQGPKPVTISFANHTSCRCMSKL | 21.5 nM
Clone 14 (protein) NTEILKSIDNEWRKTQCMPREVAIDVGKEFGVATNTFFKPPCVSVYRCGGCCIGEGLQCMNTSTSYLSKTLFEITVPLSQGPKPVTISFANHTSCRCMSKL | 74.5 nM
Clone 10 (protein) NTEILKSIDNEWRKTQCMPREVAIDVGKEFGVATNTFFKPPCVSVYRCGGCCQGEGLQCMNTSTSYLSKTLFEITVPISQGPKPVTISFANHTSCRCMSKL | 65.5 nM
WT VEGFC (protein) NTEILKSIDNEWRKTQCMPREVCIDVGKEFGVATNTFFKPPCVSVYRCGGCCNSEGLQCMNTSTSYLSKTLFEITVPLSQGPKPVTISFANHTSCRCMSKL | 34.8 nM
Clone 7 (protein) NTEILKSIDNEWRKTQCMPREVAIDVGKEFGVATNTFFKPPCVSVYRCGGCCQSEGLQCMNTSTSYLSKTLFEITVPLSQGPKPVTISFANHTSCRCMSKL | 71 nM
Clone 13 (protein) NTEILKSIDNEWRKTQCMPREVAIDVGKEFGVATNTFFKPPCVSVYRCGGCCISEGLQCMNTSTSYLSKTLFEITVPLSQGPKPVTISFANHTSCRCMSKL | 32.3 nM
Clone 31 (protein) NTEILKSIDNEWRKTQCMPREVAIDVGKEFGVATNTFFKPPCVSVYRCGGCCHSEGLQCMNTSTSYLSKTLFEITVPLSQGPKPVTISFANHTSCRCMSKL | 94.5 nM
Clone 39 (protein) NTEILKSIDNEWRKTQCMPREVAIDVGKEFGVATNTFFKPPCVSVYRCGGCCIREGLQCMNTSTSYLSKTLFEITVPLSQGPKPVTISFANHTSCRCMSKL | 104 nM
Clone 9 (protein) NTEILKSIDNEWRKTQCMPREVAIDVGKEFGVATNTFFKPPCVSVYRCGGCCQSEGLQCMNTSTSYLSKTLFEITVPISQGPKPVTISFANHTSCRCMSKL | 65.7 nM
Clone 8 (protein) NTEILKSIDNEWRKTQCMPREVAIDVGKEFGVATNTFFKPPCVSVYRCGGCCQGEGLQCMNTSTSYLSKTLFEITVPLSQGPKPVTISFANHTSCRCMSKL | 124 nM
Clone 16 (protein) NTEILKSIDNEWRKTQCMPREVAIDVGKEFGVATNTFFKPPCVSVYRCGGCCIGEGLQCMNTSTSYLSKTLFEITVPISQGPKPVTISFANHTSCRCMSKL | 36.8 nM
Clone 19 (protein) NTEILKSIDNEWRKTQCMPREVAIDVGKEFGVATNTFFKPPCVSVYRCGGCCNGEGLQCMNTSTSYLSKTLFEITVPLSQGPKPVTISFANHTSCRCMSKL | 51.3 nM
Clone 21 (protein) NTEILKSIDNEWRKTQCMPREVAIDVGKEFGVATNTFFKPPCVSVYRCGGCCNGEGLQCMNTSTSYLSKTLFEITVPISQGPKPVTISFANHTSCRCMSKL | 44.8 nM
